Measured values as given in patent publication US20110294738A1, “PTHR1 RECEPTOR COMPOUNDS” (priority 2008, published 2011).
* marks the point of attachment. Palmitoyl = CCCCCCCCCCCCCCCC(=O)*

What was measured:
PTHR1 = target: T1, PTHR1 (Rattus norvegicus, UniProt P25961); assay: cAMP screening assay using DiscoveRX XS+ kit (PTH1-34 dose-response in UMR-106 cells); conditions: compound 10 μM; for Fold Shift of EC50: PTH1-34 EC50 compound/EC50 vehicle; for Inhibition of Maximal Response: PTH1-34 stimulated maximal response, 1−(Emax compound/Emax vehicle)
T1 sequence (P25961 27-591): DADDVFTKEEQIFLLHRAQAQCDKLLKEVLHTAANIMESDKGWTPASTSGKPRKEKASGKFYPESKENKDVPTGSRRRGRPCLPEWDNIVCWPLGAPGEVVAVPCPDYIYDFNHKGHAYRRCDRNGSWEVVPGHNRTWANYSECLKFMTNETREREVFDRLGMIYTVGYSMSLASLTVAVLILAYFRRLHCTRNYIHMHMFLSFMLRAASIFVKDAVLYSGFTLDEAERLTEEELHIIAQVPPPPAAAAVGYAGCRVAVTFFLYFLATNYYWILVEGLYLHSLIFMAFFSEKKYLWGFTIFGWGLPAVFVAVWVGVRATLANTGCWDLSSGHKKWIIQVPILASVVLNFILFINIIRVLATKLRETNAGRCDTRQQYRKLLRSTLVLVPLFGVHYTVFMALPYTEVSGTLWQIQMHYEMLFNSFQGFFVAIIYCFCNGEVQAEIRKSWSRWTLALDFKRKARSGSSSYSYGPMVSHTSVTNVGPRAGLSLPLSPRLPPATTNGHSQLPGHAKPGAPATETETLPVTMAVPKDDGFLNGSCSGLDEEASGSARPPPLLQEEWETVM
Experimental: cAMP Screening Assay Using DiscoveRX XS+ Kit
UMR-106 cells were seeded in 96-well white plates at 10K cells/well in growth media. Twenty four hours after seeding, cell media was removed by gentle dumping and replaced with 30 μL of compounds diluted to 10 μM final concentration in assay buffer (Hank's balanced Salt Solution, 20 mM HEPES, pH 7.4, 0.1 μM IBMX). After 30 minute incubation at room temperature, 10 μL human PTH1-34 serial diluted in assay buffer was added. Cells were incubated at 37° C. for 15 minutes before 10 μL of water soluble analog of forskolin, NKH477 was added to final concentration of 10 μM followed by 60 minute incubation at room temperature. DiscoveRX cAMP XS+ kit reagents were then added following manufacture protocol. Briefly, 10 μL of antibody was added to each well followed by 40 μL of ED/Lysis buffer mix (1/5/19 for Galacon-star/Emerald/Lysis buffer and then 1:1 with ED). After 1 hour incubation, 40 μL of EA reagent was added followed by at least 1 hour incubation before the plates were read on TopCount reader. Data was analyzed using GraphPad Prism. PTH1-34 dose-response curves were fitted using non-linear curve fit (Y=Bottom+(Top−Bottom)/(1+10̂((Log EC50−X)*HillSlope))). PTH1-34 EC50 values calculated in the presence of compounds were compared to that in the presence of vehicle control. The ratio of the EC50 values were calculated and presented as fold shift (EC50 compound/EC50 vehicle). The effect of compounds on PTH1-34 stimulated maximal response was also assessed and was presented percent inhibition (1−(Emax compound/Emax vehicle)).

Sequence of PTHR1 receptor (P25961 whole entry): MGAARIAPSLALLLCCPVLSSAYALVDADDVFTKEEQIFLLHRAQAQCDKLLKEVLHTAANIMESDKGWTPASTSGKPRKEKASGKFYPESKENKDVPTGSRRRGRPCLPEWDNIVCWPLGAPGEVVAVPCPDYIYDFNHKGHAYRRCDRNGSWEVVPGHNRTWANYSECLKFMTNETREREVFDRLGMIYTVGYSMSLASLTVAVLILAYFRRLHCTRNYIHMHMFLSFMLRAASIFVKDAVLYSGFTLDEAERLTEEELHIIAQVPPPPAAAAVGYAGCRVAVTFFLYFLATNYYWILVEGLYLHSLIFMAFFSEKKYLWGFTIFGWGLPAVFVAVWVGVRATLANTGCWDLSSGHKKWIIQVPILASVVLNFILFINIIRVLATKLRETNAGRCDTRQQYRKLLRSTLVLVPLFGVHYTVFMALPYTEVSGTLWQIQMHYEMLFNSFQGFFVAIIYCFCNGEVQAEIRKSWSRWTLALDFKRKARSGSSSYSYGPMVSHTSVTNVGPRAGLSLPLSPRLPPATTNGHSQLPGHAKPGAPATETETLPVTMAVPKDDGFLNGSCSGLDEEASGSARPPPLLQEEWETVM

LAYFRRLHSTRNY [Compound 3]
Fold Shift of EC50 (PTHR1): 0.7 | Inhibition of Maximal Response (PTHR1): −51.40%

TNAGRSDTAQQYRKLL [Compound 78]
Fold Shift of EC50 (PTHR1): 12.7 | Inhibition of Maximal Response (PTHR1): −29.20%

LYLHSLIFMSFFSEKK [Compound 40]
Fold Shift of EC50 (PTHR1): 1.5 | Inhibition of Maximal Response (PTHR1): 28.30%

TNAGRSDTRQQARKLL [Compound 92]
Fold Shift of EC50 (PTHR1): 5 | Inhibition of Maximal Response (PTHR1): 8.30%

TNAGRSDTRQQYRKLLFS [Compound 85]
Fold Shift of EC50 (PTHR1): 6.9 | Inhibition of Maximal Response (PTHR1): 19.50%

GSYFRRLHSTRNYIH [Compound 11]
Fold Shift of EC50 (PTHR1): 1.1 | Inhibition of Maximal Response (PTHR1): 19.80%

SSYFRRLHSTRNYIH [Compound 12]
Fold Shift of EC50 (PTHR1): 0.9 | Inhibition of Maximal Response (PTHR1): 26.60%

TNAGRSDTRQAYRKLL [Compound 93]
Fold Shift of EC50 (PTHR1): 13.4 | Inhibition of Maximal Response (PTHR1): −67.00%

TNAGRSDTRQQYRALL [Compound 90]
Fold Shift of EC50 (PTHR1): 2 | Inhibition of Maximal Response (PTHR1): 21.00%

RRLHSTRNYIH [Compound 2]
Fold Shift of EC50 (PTHR1): 1.9 | Inhibition of Maximal Response (PTHR1): −24.90%

Pal-TNAGRSATRQQYRKLL-amide (Palmitoyl-TNAGRSATRQQYRKLL-NH2; SMILES CCCCCCCCCCCCCCCC(=O)N[C@H](C(=O)N[C@@H](CC(N)=O)C(=O)N[C@@H](C)C(=O)NCC(=O)N[C@@H](CCCNC(=N)N)C(=O)N[C@@H](CO)C(=O)N[C@@H](C)C(=O)N[C@H](C(=O)N[C@@H](CCCNC(=N)N)C(=O)N[C@@H](CCC(N)=O)C(=O)N[C@@H](CCC(N)=O)C(=O)N[C@@H](Cc1ccc(O)cc1)C(=O)N[C@@H](CCCNC(=N)N)C(=O)N[C@@H](CCCCN)C(=O)N[C@@H](CC(C)C)C(=O)N[C@@H](CC(C)C)C(N)=O)[C@@H](C)O)[C@@H](C)O) [Compound 82]
Fold Shift of EC50 (PTHR1): 23.4 | Inhibition of Maximal Response (PTHR1): −21.60%

TNAGASDTRQQYRKLL [Compound 76]
Fold Shift of EC50 (PTHR1): 16.9 | Inhibition of Maximal Response (PTHR1): 2.40%

TNAGRSDTRQQYAKLL [Compound 91]
Fold Shift of EC50 (PTHR1): 2 | Inhibition of Maximal Response (PTHR1): 9.80%

LYLHSLIFMAFFSEKKYLWGFT [Compound 34]
Fold Shift of EC50 (PTHR1): 1.2 | Inhibition of Maximal Response (PTHR1): 4.20%

B1: Compound 67 (peptide)
peptide: Palmitoyl-DTRQQYRKLLKS-NH2
SMILES: CCCCCCCCCCCCCCCC(=O)N[C@@H](CC(=O)O)C(=O)N[C@H](C(=O)N[C@@H](CCCNC(=N)N)C(=O)N[C@@H](CCC(N)=O)C(=O)N[C@@H](CCC(N)=O)C(=O)N[C@@H](Cc1ccc(O)cc1)C(=O)N[C@@H](CCCNC(=N)N)C(=O)N[C@@H](CCCCN)C(=O)N[C@@H](CC(C)C)C(=O)N[C@@H](CC(C)C)C(=O)N[C@@H](CCCCN)C(=O)N[C@@H](CO)C(N)=O)[C@@H](C)O
Fold Shift of EC50 (PTHR1 receptor): 6 fold | Inhibition of Maximal Response (PTHR1 receptor): 6.9%

B2: Compound 71 (peptide)
peptide: Palmitoyl-SGRVLATKLR-NH2
SMILES: CCCCCCCCCCCCCCCC(=O)N[C@@H](CO)C(=O)NCC(=O)N[C@@H](CCCNC(=N)N)C(=O)N[C@H](C(=O)N[C@@H](CC(C)C)C(=O)N[C@@H](C)C(=O)N[C@H](C(=O)N[C@@H](CCCCN)C(=O)N[C@@H](CC(C)C)C(=O)N[C@@H](CCCNC(=N)N)C(N)=O)[C@@H](C)O)C(C)C
Fold Shift of EC50 (PTHR1 receptor): 0.8 fold | Inhibition of Maximal Response (PTHR1 receptor): 13.5%

B3: Compound 70 (peptide)
peptide: Palmitoyl-TNAGRSDTRQQYRF-NH2
SMILES: CCCCCCCCCCCCCCCC(=O)N[C@H](C(=O)N[C@@H](CC(N)=O)C(=O)N[C@@H](C)C(=O)NCC(=O)N[C@@H](CCCNC(=N)N)C(=O)N[C@@H](CO)C(=O)N[C@@H](CC(=O)O)C(=O)N[C@H](C(=O)N[C@@H](CCCNC(=N)N)C(=O)N[C@@H](CCC(N)=O)C(=O)N[C@@H](CCC(N)=O)C(=O)N[C@@H](Cc1ccc(O)cc1)C(=O)N[C@@H](CCCNC(=N)N)C(=O)N[C@@H](Cc1ccccc1)C(N)=O)[C@@H](C)O)[C@@H](C)O
Fold Shift of EC50 (PTHR1 receptor): 2 fold | Inhibition of Maximal Response (PTHR1 receptor): 15.1%

B4: Compound 68 (peptide)
peptide: Palmitoyl-TNAGRSDTRQQYRKLL-NH2
SMILES: CCCCCCCCCCCCCCCC(=O)N[C@H](C(=O)N[C@@H](CC(N)=O)C(=O)N[C@@H](C)C(=O)NCC(=O)N[C@@H](CCCNC(=N)N)C(=O)N[C@@H](CO)C(=O)N[C@@H](CC(=O)O)C(=O)N[C@H](C(=O)N[C@@H](CCCNC(=N)N)C(=O)N[C@@H](CCC(N)=O)C(=O)N[C@@H](CCC(N)=O)C(=O)N[C@@H](Cc1ccc(O)cc1)C(=O)N[C@@H](CCCNC(=N)N)C(=O)N[C@@H](CCCCN)C(=O)N[C@@H](CC(C)C)C(=O)N[C@@H](CC(C)C)C(N)=O)[C@@H](C)O)[C@@H](C)O
Fold Shift of EC50 (PTHR1 receptor): 12.4 fold | Inhibition of Maximal Response (PTHR1 receptor): -0.0684

B5: Compound 69 (peptide)
peptide: Palmitoyl-TNAGRSDTRQQYRK-NH2
SMILES: CCCCCCCCCCCCCCCC(=O)N[C@H](C(=O)N[C@@H](CC(N)=O)C(=O)N[C@@H](C)C(=O)NCC(=O)N[C@@H](CCCNC(=N)N)C(=O)N[C@@H](CO)C(=O)N[C@@H](CC(=O)O)C(=O)N[C@H](C(=O)N[C@@H](CCCNC(=N)N)C(=O)N[C@@H](CCC(N)=O)C(=O)N[C@@H](CCC(N)=O)C(=O)N[C@@H](Cc1ccc(O)cc1)C(=O)N[C@@H](CCCNC(=N)N)C(=O)N[C@@H](CCCCN)C(N)=O)[C@@H](C)O)[C@@H](C)O
Fold Shift of EC50 (PTHR1 receptor): 5.2 fold | Inhibition of Maximal Response (PTHR1 receptor): 2.5%

B6: Compound 65 (peptide)
peptide: Palmitoyl-AGRSDTRQQYRKLLKS-NH2
SMILES: CCCCCCCCCCCCCCCC(=O)N[C@@H](C)C(=O)NCC(=O)N[C@@H](CCCNC(=N)N)C(=O)N[C@@H](CO)C(=O)N[C@@H](CC(=O)O)C(=O)N[C@H](C(=O)N[C@@H](CCCNC(=N)N)C(=O)N[C@@H](CCC(N)=O)C(=O)N[C@@H](CCC(N)=O)C(=O)N[C@@H](Cc1ccc(O)cc1)C(=O)N[C@@H](CCCNC(=N)N)C(=O)N[C@@H](CCCCN)C(=O)N[C@@H](CC(C)C)C(=O)N[C@@H](CC(C)C)C(=O)N[C@@H](CCCCN)C(=O)N[C@@H](CO)C(N)=O)[C@@H](C)O
Fold Shift of EC50 (PTHR1 receptor): 14.7 fold | Inhibition of Maximal Response (PTHR1 receptor): -0.359

B7: Compound 66 (peptide)
peptide: Palmitoyl-RSDTRQQYRKLLKS-NH2
SMILES: CCCCCCCCCCCCCCCC(=O)N[C@@H](CCCNC(=N)N)C(=O)N[C@@H](CO)C(=O)N[C@@H](CC(=O)O)C(=O)N[C@H](C(=O)N[C@@H](CCCNC(=N)N)C(=O)N[C@@H](CCC(N)=O)C(=O)N[C@@H](CCC(N)=O)C(=O)N[C@@H](Cc1ccc(O)cc1)C(=O)N[C@@H](CCCNC(=N)N)C(=O)N[C@@H](CCCCN)C(=O)N[C@@H](CC(C)C)C(=O)N[C@@H](CC(C)C)C(=O)N[C@@H](CCCCN)C(=O)N[C@@H](CO)C(N)=O)[C@@H](C)O
Fold Shift of EC50 (PTHR1 receptor): 16.4 fold | Inhibition of Maximal Response (PTHR1 receptor): -39%
